Experimental data: the nanobody polyreactivity screen of Harvey et al. (2022)

Assay: yeast display, Sf9 membrane polyspecificity reagent, FACS + sequencing; frameworks hold sequencing errors
Procedure, shortened: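 Galactose-induced (36–48 hours) yeast carrying a synthetic nanobody display library were exposed to 10% biotinylated, detergent-solubilized Sf9 membrane reagent at 4 °C for 1 hour. FACS followed streptavidin microbead enrichment, using low and high (top ~1%) gates for expression (anti-HA) and reagent binding (streptavidin). Colony PCR, MiSeq 2 × 250 sequencing and CDR-length filtering followed. Labels for polyreactivity reflect the gate of origin.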

| Sequence | polyreactivity (PSR sort gate) |
| --- | --- |
| QVQLVESGGGLVQAGGSLRLSCAASGFIFYYYAMGWYRQAPGKERELVAAISWSGARTYYADSVKGRFTISRDNAKNTVYLQMNSLKPEDTAVYYCNAVAFYPRSSRSWRLDYWGQGTQVTVSS | high polyreactivity |
| QVQLVESGGGLVQAGGSLRLSCAASGSTFRVYAMGWYRQAPGKERELVAAITKSGGSTYYADSVKGRFTISRDNAKNTVYLQMNSLKPEDTEVYYCAADKSWTRYGFYWGQGTQLTVSS | high polyreactivity |
| QVQLVESGGGLVQAGGSLRLSCAASGRPFDSNAMGWYRQGPGKERELVAAISYGCGTTHYADSVKGRFTISRDNAKNTVYLQMNSLKPEDTAVYYCAADPELQWESVTIGEYDYWGQGTQVTVSS | low polyreactivity |
| QVQLVESGGCLVQAGGSLRLSCAASGCTFVSNAMGWSRQAPGKERELVAAINGSGGITYYADSVKGRFTISRDNAKNTVYFQMNSLKPEDTAVYYCAAEVLYWRGYYNYWGQGTQVTVSS | low polyreactivity |
| QVQLEESGGGLVQAGGSLRLSCAASGSIFTVNAMGWYRQAPGKERELVAAISSGGSTHYADSVKGRFTISRDNAKNTVYLQMNSLKPEDTAVYFCNAAGAYPDRDNYWGQGTQVTVSS | low polyreactivity |
| QVQLVESGVGLVQAGGSLRLSCAASGIIFKNYTRGWDRPAPWKEWELVAAISWRGGRTYYADSVKGRFTISRDNAKNTVYLQMNSLKPEDTAVYYCAKELYVSYRGGPWVDYWGQGTQVTVSS | high polyreactivity |
| QVQVVQSGGGLVQAGGSLRLSCAASGSIFVPNSMGWYRPPPGKERELVAAISLSGGSTYYADSVKGRFTISRDYARNTVYLQMTSLKPEDSAVYYCAADIFYYSSSYGYWGLGTQVTVSS | low polyreactivity |
| QVQLVESGGGLVQAGGSLRLSCAASGIIFYYNAMGWYRQAPGKERELVAAISWSGGSTYYADSVKGRFTISRDNAKNTVYLQMNSLKPEDTAVYYCNAVRSTSYGSYNYWGQGTQVTVSS | low polyreactivity |
| QVQLVESGGGLVQERGSLRLSCAASGRIFGKYAMAWYRLAPGKERELVATISYGGGNTYYADSVKGRFTISRDNAKNTVYLQMNSMKPEDTAVYYCARVPYAYLRYKPFQQYSYDYWGQGTKVTVSS | high polyreactivity |
| QVQLVESGGGLVQAGGSLRLSCAASGFTFPVYAMGWYREAPGKERELVAAISTSAGSTYYADSVKGRFSISRDNAKNTVYLQLNSLKPEDTAVYYCNADVAGGYGWKSYHGYDYWGQGTQVTVSS | high polyreactivity |
| QVQLVESGGGLVQAGGSLRLSCAASGRTFSAYTMGWYRQAPGKERELVAAISRRGGSTYYADSVKGRFTISRDNAKNTVYLQMNSLKPEDTAVYYCATKSQYDYDYWGHGTQVTVSS | high polyreactivity |
| QVQLVESGGALVQAGGSLRLSCAASARIFGRNAMGWYTQAPGKERELVAAISSGGSTYYADSVKGRFTISRDNAKKTVYLQMNSLKPEDTAVYYCAVRGYYFNGGRAFESWGQGTQVTVSS | high polyreactivity |
| QVQLVESGGGLVQAGGSLRLSCAASGTTFSPNAMGWYRQAPGKERELVAAITGGGSTYADSVKGRFTISRDNAKNTVYLQMNSLKPEDTAVYYCNADSYSFPYYYWGQGTQVTVSS | low polyreactivity |
| QGQLVESGGCLVQAGGSLRLSCAASGSIFSENTMGWYRQAPGKKRELVADITSGGSTNYADSVKGRFTSSRDNAKYTVYLQMNSLIPEDTEVYYCAADYNGEYDYWGQGTLVTVSS | low polyreactivity |
| QVQLVESGGGLVQAGGSLRLSCAASGYTFSTYAMGWYRQAPGKERELFAAISYSGGRTRYADSVKGRFTISRDNAKNTVYLQMNSLKPEDTAVYYCAAKSGYGYGYWGQGTQVTVSS | high polyreactivity |
| QVQLVESGGGLVQAGGSLRLSCAASGRTFYSYAMGWYRQAPGKERELVAAISAGGSTYYADSVKGRFTISRDNAKNTVYLQMNSLKPEDTAVYYCAATYSYYYARYHYWGQGTQVTVSS | high polyreactivity |
| QVQLVESAGGLVQAGGSLRLICAASGSILQPYAMGWYRQAPGKERELVAYISYSGASTYYADSVKGRFTISRDNPKNTVYLQLNSLKPEDPAVYYCNARYWYHYLTYDYSGQGTQVTVSS | high polyreactivity |
| QVQLVESGGGLVQAGGSLRLSCAASGSILYYYAMGWYRQAPVKERELVATITSGGTTNYADSVKGRFTISRDNAKNTVYLQMISLKPEDTAVYYCAADWAWDTKSAPAYPRAYDYWGPGTQVTVSS | low polyreactivity |
| QVQLVESGGGLVQAGGSLRLSCAASGRILQVEYAMGWNIQAPGKERELVAAITESDGSTSYADSVKGRFTISRDNAKNTVYLQMNSLKPEDTAVYYCNVVRGYPNGGYDYWGQGTQVTVSS | low polyreactivity |
| QVQLVESGGGLVQAGGSLRLSCAASGIIFGYYARGWYRQAPGKARELVAAISRGGNTNYADSVKGRFTISRDNAKNTVYLQMNSLKPEDTAVYYCAADFWSRIKYFYAVDVDYWGQGTQVTVSS | low polyreactivity |
| QVQLVESGGCLVQAGGRLRLSSAASGRTIGWNAMGWYRQAPGTEREFVAAITISGGDTYYADSVKGRFTISRDNAKNNVYFQMNSLKPEDTAVYYCAATSTWRPSFEMDYWGQGTQVTGSS | low polyreactivity |
| QVQLVESGGGLVQAGGSLRLSCAASGFTFPKYAMGWYRQAPGKERELVAGITTGGSTYYADSVKGRFTISRDNAKNTVYLQMNSLKPEDTAVYYCAASGRLSLGGRFYDLGLRYDYWGQGTQVTVSS | low polyreactivity |

| Sequence | polyreactivity (PSR sort gate) |
| --- | --- |
| QVQLVESGGGLVQAGGRLRLSCADSGSTFWSYAIGWYRQSPGKEREFVAAISSSDDSTYYADSVKGRFTISRDNAKNTVYLQMNSLKPEDTAVYYCATSWYIYPFDYWGQGTQVTVSS | low polyreactivity |
| QVQLVESGGGLVQAGGSLRLSCASSGITFRVYAMGWYRQAPGKERELVAGISRGGRTSYADSVKGRFTISRDNAKNTVYLQMNSLKPEDTAVYYCAARQYRHRVKYYYWGQGTQVTVSS | high polyreactivity |
| QFQLVESGGGLVQAGGSLRLSSAASGSTFYYNAMGWYRQAPGKERELVAVITSGVSTYYADSVKGRFTISRDNAKNTVYLQMNSLKPVDTAVYYCAADLYRPYEYQLDYWGHGTQVTVSS | low polyreactivity |
| QVQLVESGGGLVQAGGSLRLSCAASGFTTSQYAMGWYRQAPGKERDLVAAITSSGSSTYYADSVKGRFTISRDNAKNTVYLQMNSLKPEDTAVYYFNTDAYHRYPGSVWYYYWGQGTQVTVSS | high polyreactivity |
| QVQLVESGGGLVQAGGSLRLSCAASGGIFRVYAMGWYRQAPGKERELVAAISRSGSSTYYADSVKGRFTISRDNAKNTVYLQMTSLKPEDTAVYYCNAYSQYWLGNNYWGQGTQVTLSS | high polyreactivity |
| QVQLVESGGGLVQAGGSLRLSCAASGTFTVNTMGWSRQAPGKERELVAAISTGDTTTYADSVKGRFTISRDNAKNTVYLQMNSLKPEDTAVYYCNAVAKLYYWRYDYWGQGTQVTVSS | low polyreactivity |
| QVQLVESGGGLLQAGGSLRLSCAASGRTFSGYTMGWYRQAPGKERELLATIRDRGGSTYYADSVKGRFTISRDNAKNTVYLQMNSLTPEDSAVYYCAARRGRRYYYWGQGTQVTVSS | high polyreactivity |
| QVQLVESGGGLVQAGGSLRLSCAASGFIFYPYAMGSYRQAPGKERELVAAITSSGGSTYYADSVKGRFTISRDNAKNTVYLQMNSLKPEDTAVYYCAAYTSYYGTIIAFRYYYWGQGTQVTVSS | high polyreactivity |
| QVQLVESGGGLVQAGGSLRLSCAASGNTFRWYDMGWYRQAPGKERELVAGITRVGCTNYADSVKGRFTISRDNAKNTVYLQMNSLKPEDTAVYYCAARPRWFYGYPYGIIGYDYWGQGTQVTVSS | high polyreactivity |
| QVQLVESVGGLVQAGGSLRLSCAASGFTFSSYSMGWYRQAPGKERELVAAITISGGRTYYADSVKGRFTISRDNAKNTVYLQMNSLKPEDTAVYYCAARYVEGQNHYGYRGQGTQVTVSS | high polyreactivity |
| QVQLVESGGGLVQAGGSLRLTCAASGSNFWSYDMGWYRQAPGKERELVATITSGDSTYYADSVKGRFTISRDNAKNTVYLQMYSLKPEDTAVYYCAAGTYYRRPYWHRDYDYWGQGTQVTVSS | low polyreactivity |
| QVQLVESGGGLVQAGGSLRLSCAASGSIFGYYVMGWYRQAPGKERELVAAISGSDSSTYYADSVKGRFTISRDNAKNTVYLQMNSLKPEDTAVYYCNADLRYYPVEFDYWGQGTQVTVSS | low polyreactivity |
| QVQLVESGGGLVPAGGSLRLSCAASGRTLYGYAMGWYRQAPGKERELVAAISGGGSTYYADSVKGRFTISRDNAKNTVYLQMNSLKPEDTAVYYCARRANFYVRRYYWGQGSQVTVSS | high polyreactivity |
| QVQLVESGGGLVQAGGRLLLSCAASGLTFYEYAMGWYRQAHGKERELVADIDFNGGSTSYAYSVKGRFTISRDNAKNTVYLQMNSLKPEDTAVYYCNTRDRGDVVTGLDYSGQGTQVTVSS | low polyreactivity |
| QVQLVESGGGLVQEGGSLRLSCAASGRIFSRYVMGWYRQAPGKERELVAAITGSGGSTYYADSVKGRFTISRDNAKNTVYLQMNSLKPEDTADYYCAVVSRANSYRYNYWGQGTQVTVSS | high polyreactivity |
| QVQLVESGGGLVQAGGSLRLSCAASGNTFPPNAMGWYRQAPGKERELVAAISWSGDSTYYADSVKGRFTISRDNAKNTVYLQMNSLKPEDTAVYYCAAAIFGEYEYWGQGTQVTVSS | low polyreactivity |
| QVQLVESGGGLVQAGGSLRLSCAASGSTFLQNAMGWYRQAPGKERELVAAISRSGGSTYYADSVKGRFTISRDNAKNTVYLQMNSLKPEDTAVYYCAAGGRRYDDDYWGQGTQVTVSS | high polyreactivity |
| QVQLVESGGGLVQAGGSLRLSCAASGSTFPWNAMGWHRQAPGKERELVAAISKSGGRTYYADSVKGRFTISRDNAKNTVYLQMNSLRPEDTAVYYCNALGSLDGRYGYWGQGTQVTVSS | high polyreactivity |
| QVQHVETGRDLVQAGGSLRLSCAAAGLIFVSYAMGGYRQAPGKERELVASITDSDSSTYYADSVKGRFTISRDNAKNTVYLQMNSLKPEDTAVYYCATGGRTEIWYPTLDYWGQGTQVTVSS | low polyreactivity |
| QVQLVESGGGLVQAGGSLRLSCAASGSIFGKYVMGWYRQAPGKERELVAAITFGGGSTYYADSVKGRFTISRDNAKNTVYFQMNSLKPEDTAVYYCAAKSYDERLYRRPRDYWGQGTQVTVSS | high polyreactivity |
| QVQLVESGGGLVQAGGSLRLSCAASGRTFLVYAMGWYRQAPGKDRELVAAISSDGSTHYADSVKGRFTISRDNAKKTVYLQMNSLHPEDTAVYYCARDYYAFSYLYDYWGQGTQVTVSS | low polyreactivity |
